Test results as given in publication PMC2878840.

Target: hypoglycosylated E-cadherin variant V13 (V13-flag) (human)
Assay: co-IP

fold change of co-precipitated PP2A against wild type E-cadherin: 2 fold
Substance: protein phosphatase 2A catalytic subunit (from UniProt A0A8I3NN81 1-306) (enzyme)
